The record followed here is patent CN112778416A (KANGYUAN MEDICAL TECH DALIAN CO LTD, dated 2021).

Experiment [1] concerns the target T1, 白介素-6 (IL-6) (UniProt P05231 30-212).
T1 construct: also called Interleukin-6; 抗原IL-6
As to the kind of experiment: SPR, IL-6 amine-coupled to CM5 chip, polypeptide injected. (In general: SPR reads the build-up and loss of mass on a sensor chip optically.)

The target of experiment [2] is T1, 白介素-6 (IL-6). Nature of the experiment: SPR, IL-6 amine-coupled to CM5 chip, nanobody injected.

B1: 人源化二价多肽hbvCNb20-1 (VHH)
chain: EVQLVESGGGSVQAGGSLRLSCAASSGILEIFNAMSWFRQAPGKEREWVSAIMGSPYGSTEYYADSVKGRFTFSQDNAKNTVYLQMDSLRPEDTATYYCHSAGYDPRGDDYWGQGTLVTVSSGGGGSGGGGSGGGGSEVQLVESGGGSVQAGGSLRLSCAASSGILEIFNAMSWFRQAPGKEREWVSAIMGSPYGSTEYYADSVKGRFTFSQDNAKNTVYLQMDSLRPEDTATYYCHSAGYDPRGDDYWGQGTLVTVSS
In the experiment with 白介素-6 (IL-6) [1], B1 registered a Kd of 80.7 pM and a koff of 0.000184 s⁻¹.

B2: 纳米抗体CNb20-1 (VHH)
VHH: QVQLQESGGGSVQAGGSLRLSCAASSGILEIFNAMAWFRQAPGKEREWVARIMGSPYGSTEYYADSVKGRFTFSQDNAKNTVYLQMDSLEPEDTATYYCHSAGYDPRGDDYWGQGTQVTVSS
In the experiment with 白介素-6 (IL-6) [2], B2 had a Kd of 11.1 pM.

B3: 人源化纳米抗体hCNb20-1 (VHH)
VHH: EVQLVESGGGSVQAGGSLRLSCAASSGILEIFNAMSWFRQAPGKEREWVSAIMGSPYGSTEYYADSVKGRFTFSQDNAKNTVYLQMDSLRPEDTATYYCHSAGYDPRGDDYWGQGTLVTVSS
notes: Humanised variant of CNb20-1, purified on Ni Sepharose
On to B3, for which binding with 白介素-6 (IL-6) [2] was characterised by a dissociation constant (Kd) of 99.5 pM. This Kd lies about 9-fold higher than the previous one.

B4: 纳米抗体CNb20-2 (VHH)
VHH: QVQLVESAGGLVQPGGSLRLSCAASGRFTGGSPMGWYRQAPGKRRELVADIMGRGGSNTYADSVKGRFTISRDNAKNTVYLQMNSLKPEDTAVYYCAEAERVSGLLLEVVAEPRGDDYWGQGTQVTVSS
With B4, binding with 白介素-6 (IL-6) [2] was characterised by a dissociation constant (Kd) of 42.3 pM.

One may read the Kd as the concentration at which binding is half-saturated. Low readings indicate a tighter complex, high ones a looser complex. Usually koff stands for the rate constant with which the complex falls apart. A higher koff goes with fast dissociation.
